Legend:
rat eye = experiment: In vivo implant formation of ISPcI in rat eye following intravitreal injection; details: day 1, day 6 and day 18
Method: 2 μl of ISPcI gel formulation was injected by intravitreal route in the rat eye, following by UV light exposure for 2 min, fundus images were collected to locate the implant formation and image model dye release within the eye. Likewise PPcI were administered by subconjunctival route and any surface inflammation monitored by experienced ophthalmologist

[1] = In vitro drug release from in situ photocrosslinked implants (ISPcI) in PBS
Method: (§1) For drug release studies selected ISPcI gel formulation were injected (approx. 0.2 g or 0.1 g) into desired amount of PBS (pH 7.3±0.2). Sink conditions were maintained for each drug type. ISPcI were formed by exposing them immediately to 365 nm using bench-top UV light (at 3.1±0.1 mW/cm^2, CAMAG, Muttenz, Switzerland) for varying periods of time in PBS. The implants were stored in an incubator (37° C. and 60 rpm) for the duration of the release study. At predetermined time intervals the entire PBS medium was removed and replaced with equal amount of fresh PBS. All the experiments were carried out in triplicates. The concentration of released drug molecule in the PBS samples was analyzed as described below.
BSA, OVA and bevacizumab (Avastin) were assayed using a Pierce™ Micro BCA protein assay kit (Thermo Scientific, Hampton, UK). To a microwell, 150 μL of BSA, OVA or BVZ standard or release sample was pipetted and 150 μL of working reagent was added. A plate shaker ensured thorough mixing. The 96-well plate was covered and incubated for 2 hours at 37° C. Once the plate was allowed to return to room temperature, a UV plate reader measured the absorbance at 562 nm. The average absorbance reading of the blank was subtracted from those of the standards/samples.

[2] = In vitro drug release from preformed photocrosslinked implants (PPcI) in PBS; type: physicochemical; details: PPcI 30% w/w PLGA 75/25 / PEGDA 700, 5 runs, lamp intensity 100%, after 266 days
Method: as §1
Analysis of DEX and TA samples were carried out using reversed-phase HPLC with UV detection (Agilent 1260 Infinity Quaternary System) using an Agilent Zorbax Eclipse Plus 250 mm C18 column (250 mm length, 4.6 mm internal diameter and 5 μm particle size) and an Agilent Zorbax guard column held at 25° C. […] Analysis required a mobile phase of 60% water and 40% acetonitrile with UV absorbance at 270 nm (for DEX) and 236 nm (for TA) at a flow rate of 1 ml/min and 0.8 ml/min respectively. Analysis of FITC-Dextran 150 kDa release was conducted using a fluorescence spectrophotometer. […] Fluorescence excitation occurred at 480 nm with emission measured at 520 nm. […]

[3] = ELISA test for bioactivity of OVA released from ISPcI; details: released from ISPcI at 37±2° C., after 1 and 3 months
Method: (Agilent Technologies UK Ltd, Stockport, UK). […] A plate shaker ensured thorough mixing.
Due to slow degradation rate of the crosslinked ISPcIs, the drastic drop in local pH is further delayed (unlike PLGA only implants) which is especially important and an advantage in protecting the sensitive molecules such as peptides and proteins. […] For example, an ELISA test was conducted to determine the bioactivity of released OVA from the ISPcI, at 37±2° C., after 1 and 3 months, respectively.

O=C1OC2(c3ccc(O)cc3Oc3cc(O)ccc32)c2ccccc21 [fluorescein sodium]
release of fluorescein sodium from ISPcI implant in the eye (fundus images) (rat eye): slow and continuous release

Bevacizumab [BVZ]
BVZ released ([1]; 30% PLGA ISPcI implants UV crosslinked for 30 sec): ~100%
BVZ released ([1]; 30% PLGA ISPcI implants UV crosslinked for 2.5 min): approximately 41%

Fluorescein isothiocyanate-dextran [FITC-Dextran 150 kDa]
% release [2]: ~27%

B1: ovalbumin (protein, UniProt P01012 2-386, looked up)
Ovalbumin: GSIGAASMEFCFDVFKELKVHHANENIFYCPIAIMSALAMVYLGAKDSTRTQINKVVRFDKLPGFGDSIEAQCGTSVNVHSSLRDILNQITKPNDVYSFSLASRLYAEERYPILPEYLQCVKELYRGGLEPINFQTAADQARELINSWVESQTNGIIRNVLQPSSVDSQTAMVLVNAIVFKGLWEKAFKDEDTQAMPFRVTEQESKPVQMMYQIGLFRVASMASEKMKILELPFASGTMSMLVLLPDEVSGLEQLESIINFEKLTEWTSSNVMEERKIKVYLPRMKMEEKYNLTSVLMAMGITDVFSSSANLSGISSAESLKISQAVHAAHAEINEAGREVVGSAEAGVDAASVSEEFRADHPFLFCIKHIATNAVLFFGRCVSP
notes: model protein molecule, Mw of 45 kDa
OVA remained active (bioactivity of released OVA by ELISA) [3]: ~97±2%

From patent publication US20230129084A1, “COMPOSITE IMPLANTS” (Re-Vana Therapeutics Ltd., priority 2015, published 2023)
